Data set [1] deals with T1, CYP72A565 (Camptotheca acuminata, UniProt A0A4Y5UJ61).
T1 construct: full-length ORF, C-terminal His6, in pCWori, expressed in E. coli, purified; kinetics with Camptotheca CPR1 and DLPC
The experiment in a line: LC-MS of secologanic acid formed, reconstituted with CPR1. It is filed as biochemical. The conditions noted are these: 250 uM substrate, 500 uM NADPH, Camptotheca CPR1, DLPC, 100 mM NaPO4 pH 7.5, 30 °C, 120 min.

The target in data set [2] is T2, CYP72A564 (Camptotheca acuminata, UniProt A0A7G8Z808).
T2 construct: full-length ORF, C-terminal His6, in pCWori, expressed in E. coli, purified; kinetics with Camptotheca CPR1 and DLPC
T2 sequence (A0A7G8Z808 entry or part of it): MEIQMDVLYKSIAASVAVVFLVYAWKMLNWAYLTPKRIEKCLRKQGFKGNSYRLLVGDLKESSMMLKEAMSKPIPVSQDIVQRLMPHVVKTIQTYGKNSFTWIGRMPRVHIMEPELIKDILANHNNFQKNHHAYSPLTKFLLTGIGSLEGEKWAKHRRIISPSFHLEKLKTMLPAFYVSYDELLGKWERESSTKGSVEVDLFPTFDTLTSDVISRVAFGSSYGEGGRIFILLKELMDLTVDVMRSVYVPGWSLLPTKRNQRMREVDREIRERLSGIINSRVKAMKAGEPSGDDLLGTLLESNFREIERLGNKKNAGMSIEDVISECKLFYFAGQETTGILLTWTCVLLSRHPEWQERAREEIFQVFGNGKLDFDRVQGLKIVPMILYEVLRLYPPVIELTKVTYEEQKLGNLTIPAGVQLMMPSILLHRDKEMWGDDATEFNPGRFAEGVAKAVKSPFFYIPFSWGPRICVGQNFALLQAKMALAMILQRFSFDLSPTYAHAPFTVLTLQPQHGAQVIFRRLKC
The description is as above. The conditions noted are these: 250 uM substrate, 500 uM NADPH, Camptotheca CPR1, DLPC, 100 mM NaPO4 pH 7.5, 30 °C, 120 min. The format is biochemical.

For data set [3], the target named is SLS, SLAS common ancestor (node 34) (synthetic construct). The data set can be described thus: Type I difference spectral titration. The format is binding. The conditions noted are these: read-out: Ks/mM. An excerpt: Type I difference spectral titration on SLS, SLAS common ancestor (node 34)
For data set [4], the target named is T1, CYP72A565. The data set can be described thus: LC-MS of secologanin formed, reconstituted with CPR1. It is filed as biochemical. The conditions noted are these: 250 uM substrate, 500 uM NADPH, Camptotheca CPR1, DLPC, 100 mM NaPO4 pH 7.5, 30 °C, 120 min.
Data set [5] has as its target T3, CYP72A565 (Camptotheca acuminata, UniProt A0A4Y5UJ61, H131F/H132D).
T3 construct: full-length ORF, C-terminal His6, in pCWori, expressed in E. coli, purified; kinetics with Camptotheca CPR1 and DLPC
The data set can be described thus: Type I difference spectral titration. It is filed as binding. The conditions noted are these: read-out: Ks/mM. An excerpt:
(§1) Type I difference spectral titration on CYP72A565

Data set [6] has as its target T4, CYP72A565 (Camptotheca acuminata, UniProt A0A4Y5UJ61, H131F).
T4 construct: full-length ORF, C-terminal His6, in pCWori, expressed in E. coli, purified; kinetics with Camptotheca CPR1 and DLPC
The data set can be described thus: Type I difference spectral titration. The format is binding. The conditions noted are these: read-out: Ks/mM.
Source text: as §1

Data set [7] has as its target T5, CYP72A565 (Camptotheca acuminata, UniProt A0A4Y5UJ61, K270T).
T5 construct: full-length ORF, C-terminal His6, in pCWori, expressed in E. coli, purified; kinetics with Camptotheca CPR1 and DLPC
The data set can be described thus: Type I difference spectral titration. The format is binding. The conditions noted are these: read-out: Ks/mM.
Source text: as §1

For data set [8], the target named is T6, CYP72A564 (Camptotheca acuminata, UniProt A0A7G8Z808, H132D).
T6 construct: full-length ORF, C-terminal His6, in pCWori, expressed in E. coli, purified; kinetics with Camptotheca CPR1 and DLPC
T6 sequence (A0A7G8Z808 entry or part of it H132D): as the sequence (A0A7G8Z808 entry or part of it) above, with H132D counted along it
The experiment in a line: Type I difference spectral titration. It is filed as binding. The conditions noted are these: read-out: Ks/mM. An excerpt: (§2) Type I difference spectral titration on CYP72A564

The target of data set [9] is T7, CYP72A564 (Camptotheca acuminata, UniProt A0A7G8Z808, H131F).
T7 construct: full-length ORF, C-terminal His6, in pCWori, expressed in E. coli, purified; kinetics with Camptotheca CPR1 and DLPC
The experiment in a line: Type I difference spectral titration. It is filed as binding. The conditions noted are these: read-out: Ks/mM.
Source text: as §2

The target of data set [10] is T2, CYP72A564. The experiment in a line: LC-MS of secologanin formed, reconstituted with CPR1. It is filed as biochemical. The conditions noted are these: 250 uM substrate, 500 uM NADPH, Camptotheca CPR1, DLPC, 100 mM NaPO4 pH 7.5, 30 °C, 120 min.
Substrate in data set [11]: COC(=O)C1=CO[C@@H](O[C@@H]2O[C@H](CO)[C@@H](O)[C@H](O)[C@H]2O)[C@@H]2[C@@H](C)[C@@H](O)C[C@H]12
The data set can be described thus: purified protein. The format is biochemical, Camptotheca acuminata. The conditions noted are these: ~0.8 mM NADPH, Camptotheca CPR1, 60 uM DLPC, 100 mM NaPO4 pH 7.5, 30 °C.

Substrate in data set [12]: C[C@@H]1[C@H]2[C@H](O[C@@H]3O[C@H](CO)[C@@H](O)[C@H](O)[C@H]3O)OC=C(C(=O)O)[C@H]2C[C@@H]1O
The experiment in a line: purified protein. The conditions noted are these: ~0.8 mM NADPH, Camptotheca CPR1, 60 uM DLPC, 100 mM NaPO4 pH 7.5, 30 °C. The format is biochemical, Camptotheca acuminata.

Substitutions are numbered along the chain they refer to. Numbers in names are those of the source.

A word on the Km: it is the substrate concentration at which the rate is half of its maximum. In general, kcat refers to the maximal rate divided by the concentration of active sites. What is called kcat/Km is the second-order rate constant that governs catalysis at low substrate concentration.

T1 sequence (A0A4Y5UJ61 entry or part of it): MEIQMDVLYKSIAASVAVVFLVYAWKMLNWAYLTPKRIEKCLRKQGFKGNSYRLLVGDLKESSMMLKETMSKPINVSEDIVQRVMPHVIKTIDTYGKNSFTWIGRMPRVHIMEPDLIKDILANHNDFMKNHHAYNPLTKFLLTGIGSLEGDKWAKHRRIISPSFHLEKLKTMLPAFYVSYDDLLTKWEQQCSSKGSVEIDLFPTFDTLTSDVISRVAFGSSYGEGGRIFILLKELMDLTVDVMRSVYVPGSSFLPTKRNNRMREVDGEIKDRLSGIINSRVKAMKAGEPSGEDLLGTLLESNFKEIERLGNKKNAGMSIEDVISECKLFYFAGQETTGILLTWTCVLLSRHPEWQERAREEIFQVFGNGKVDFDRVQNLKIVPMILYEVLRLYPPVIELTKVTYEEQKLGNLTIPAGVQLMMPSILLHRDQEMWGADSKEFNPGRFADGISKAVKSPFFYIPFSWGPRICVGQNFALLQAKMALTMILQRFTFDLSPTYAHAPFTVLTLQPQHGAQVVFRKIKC
T3 sequence (A0A4Y5UJ61 entry or part of it H131F/H132D): as the sequence (A0A4Y5UJ61 entry or part of it) above, with H131F, H132D counted along it
T5 sequence (A0A4Y5UJ61 entry or part of it K270T): as the sequence (A0A4Y5UJ61 entry or part of it) above, with K270T counted along it

In the case of `C[C@@H]1[C@H]2[C@H](O[C@@H]3O[C@H](CO)[C@@H](O)[C@H](O)[C@H]3O)OC=C(C(=O)O)[C@H]2C[C@@H]1O` [loganic acid], the “LC-MS of secologanic acid formed, reconstituted with CPR1” value is “CYP72A564 consistently showed higher SLS and SLAS activity than CYP72A565” in data set [1]; “CYP72A564 consistently showed higher SLS and SLAS activity than CYP72A565” in data set [2].
With `COC(=O)C1=CO[C@@H](O[C@@H]2O[C@H](CO)[C@@H](O)[C@H](O)[C@H]2O)[C@@H]2[C@@H](C)[C@@H](O)C[C@H]12` [loganin], the Kd in [3] was found to be 2.3 ± 1 mM; in data set [5] it was 0.345 ± 0.041 mM; in [6], 0.283 ± 0.013 mM; in [7], 1.2 ± 0.084 mM; in [8] it was 1.19 ± 0.048 mM; in data set [9], 0.0547 ± 0.003 mM. The “LC-MS of secologanin formed, reconstituted with CPR1” value in [4] is “CYP72A564 consistently showed higher SLS and SLAS activity than CYP72A565”; in data set [10], “CYP72A564 consistently showed higher SLS and SLAS activity than CYP72A565”.

B1: CYP72A565 (Camptotheca acuminata; H131F) (protein)
chain: MEIQMDVLYKSIAASVAVVFLVYAWKMLNWAYLTPKRIEKCLRKQGFKGNSYRLLVGDLKESSMMLKETMSKPINVSEDIVQRVMPHVIKTIDTYGKNSFTWIGRMPRVHIMEPDLIKDILANHNDFMKNFHAYNPLTKFLLTGIGSLEGDKWAKHRRIISPSFHLEKLKTMLPAFYVSYDDLLTKWEQQCSSKGSVEIDLFPTFDTLTSDVISRVAFGSSYGEGGRIFILLKELMDLTVDVMRSVYVPGSSFLPTKRNNRMREVDGEIKDRLSGIINSRVKAMKAGEPSGEDLLGTLLESNFKEIERLGNKKNAGMSIEDVISECKLFYFAGQETTGILLTWTCVLLSRHPEWQERAREEIFQVFGNGKVDFDRVQNLKIVPMILYEVLRLYPPVIELTKVTYEEQKLGNLTIPAGVQLMMPSILLHRDQEMWGADSKEFNPGRFADGISKAVKSPFFYIPFSWGPRICVGQNFALLQAKMALTMILQRFTFDLSPTYAHAPFTVLTLQPQHGAQVVFRKIKC
notes: full-length ORF, C-terminal His6, in pCWori, expressed in E. coli, purified; kinetics with Camptotheca CPR1 and DLPC
As for B1, in data set [11], the Km amounted to 0.29 ± 0.08 mM, the kcat amounted to 0.128 ± 0.01 s⁻¹ and the catalytic efficiency (kcat/Km) was 445 ± 130 M⁻¹ s⁻¹.

B2: CYP72A565 (Camptotheca acuminata; H131F/H132D) (protein)
chain: B1 chain with H132D
notes: as for B1
In the case of B2, in data set [11], the Km was 1.71 ± 0.10 mM, the kcat came out at 0.53 ± 0.0233 s⁻¹ and the kcat/Km worked out at 280 ± 18.3 M⁻¹ s⁻¹.

B3: CYP72A564 (Camptotheca acuminata; H131F) (protein)
chain: MEIQMDVLYKSIAASVAVVFLVYAWKMLNWAYLTPKRIEKCLRKQGFKGNSYRLLVGDLKESSMMLKEAMSKPIPVSQDIVQRLMPHVVKTIQTYGKNSFTWIGRMPRVHIMEPELIKDILANHNNFQKNFHAYSPLTKFLLTGIGSLEGEKWAKHRRIISPSFHLEKLKTMLPAFYVSYDELLGKWERESSTKGSVEVDLFPTFDTLTSDVISRVAFGSSYGEGGRIFILLKELMDLTVDVMRSVYVPGWSLLPTKRNQRMREVDREIRERLSGIINSRVKAMKAGEPSGDDLLGTLLESNFREIERLGNKKNAGMSIEDVISECKLFYFAGQETTGILLTWTCVLLSRHPEWQERAREEIFQVFGNGKLDFDRVQGLKIVPMILYEVLRLYPPVIELTKVTYEEQKLGNLTIPAGVQLMMPSILLHRDKEMWGDDATEFNPGRFAEGVAKAVKSPFFYIPFSWGPRICVGQNFALLQAKMALAMILQRFSFDLSPTYAHAPFTVLTLQPQHGAQVIFRRLKC
notes: as for B1
Regarding B3, in [11], the Km was 0.05 ± 0.01 mM, the kcat was 0.132 ± 0.00333 s⁻¹ and the kcat/Km turned out to be 2480 ± 300 M⁻¹ s⁻¹.

B4: CYP72A564 (Camptotheca acuminata; H132D) (protein)
chain: B3 chain with F131H, H132D
notes: as for B1
Consider B4, for which, in data set [11], the Km was 1.44 ± 0.06 mM, the kcat is 0.228 ± 0.005 s⁻¹ and the kcat/Km came to 158 ± 8.33 M⁻¹ s⁻¹.

B5: CYP72A564 (Camptotheca acuminata; R270T) (protein)
chain: B3 chain with F131H, R270T
notes: as for B1
B5: in [12], the Km was determined as 3.54 ± 0.51 mM, the kcat was 0.333 ± 0.0267 s⁻¹ and the kcat/Km was 95 ± 15 M⁻¹ s⁻¹.

These data come from publication PMC9424959, “Single mutations toggle the substrate selectivity of multifunctional Camptotheca secologanic acid synthases” (The Journal of Biological Chemistry, 2022).
